Test results: paper PMC2857867

Biological target: VACV strain WR IFNα/βBP B18 (vaccinia virus strain Western Reserve), P25213
Assay: SPR
Conditions: remark: other sources report otherwise

B1: hIL-29, Q8IU54 20-200 (ligand)
chain: GPVPTSKPTTTGKGCHIGRFKSLSPQELASFKKARDALEESLKLKNWSCSSPVFPGNWDLRLLQVRERPVALEAELALTLKVLEAAAGPALEDVLDQPLHTLHHILSQLQACIQPQPTAGPRPRGRLHHWLHRLQEAPKKESAGCLEASVTFNLFRLLTRDLKYVADGNLCLRTSTHPEST
  Kd: 13.5 nM
  kon: 193000 M⁻¹ s⁻¹
